Results on twelve molecules are retold here after patent US6913892 (H LUNDBECK A S, dated 2005).

The target of test [1] is T1, human Y4 receptor (human, UniProt P0DQD5 1-375).
T1 construct: also called hp25a; hp25a receptor
The test is described as follows: 125I-PYY displacement, COS-7 membranes.

The target of another test is T2, rat Y4 receptor (rat, UniProt Q63447 1-375).
T2 construct: Full-length receptor (375 aa) transiently expressed in COS-7 cells; membranes used; also called rs16b; rat Y4 homolog
T2 sequence (Q63447 whole entry R262P): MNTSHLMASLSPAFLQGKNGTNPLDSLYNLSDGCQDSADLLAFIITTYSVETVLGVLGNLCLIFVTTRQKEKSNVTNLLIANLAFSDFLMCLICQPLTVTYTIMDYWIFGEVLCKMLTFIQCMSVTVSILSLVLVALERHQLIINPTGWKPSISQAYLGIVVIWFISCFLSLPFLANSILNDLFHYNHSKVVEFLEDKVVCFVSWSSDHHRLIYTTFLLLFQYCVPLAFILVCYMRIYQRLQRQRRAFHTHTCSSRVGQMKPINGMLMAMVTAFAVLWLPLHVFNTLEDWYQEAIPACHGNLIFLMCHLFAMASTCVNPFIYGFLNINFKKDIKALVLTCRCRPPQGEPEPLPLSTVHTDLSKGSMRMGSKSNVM
The test is described as follows: 125I-PYY displacement, COS-7 membranes.

Test [2] deals with T1, human Y4 receptor. Put plainly: 125I-PYY displacement, COS-7 membranes (as in Table 3). The protocol: (§1) Radioligand Binding to Membrane Suspensions: Membrane suspensions were diluted in binding buffer supplemented with 0.1% bovine serum albumin and 0.1% bacitracin to yield an optimal membrane protein concentration: ~0.02 mg/ml for human Y1 receptors, ~0.015 mg/ml for hp25a receptors, and ~0.25 mg/ml for SK-N-Be(2). […] Incubations were terminated by filtration over Whatman GF/C filters (pre-coated with 0.5% polyethyleneimine and air-dried before use). […] Binding data were analyzed using nonlinear regression and statistical techniques available in the GraphPAD InPlot package (San Diego, Calif.). […] Whatman GF/C filters were from Brandel (Gaithersburg, Md.). Bio-Rad Reagent was from Bio-Rad (Hercules, Calif.). Bovine serum albumin and bacitracin were from Sigma (St. Louis, Mo.). All other materials were reagent grade.

In test [3] the target is T1, human Y4 receptor. Put plainly: cell-based or functional assay.
Test [4] concerns the target T1, human Y4 receptor. The test is described as follows: 125I-PYY displacement, COS-7 membranes. The protocol: as §1
The source holds these as a separate data set.

In test [5] the target is T3, human Y1 receptor (human, UniProt P25929 1-384).
T3 construct: Transiently expressed in COS-7 cells; membranes used; also called cloned human Y1 receptor (Larhammar et al., 1992)
T3 sequence: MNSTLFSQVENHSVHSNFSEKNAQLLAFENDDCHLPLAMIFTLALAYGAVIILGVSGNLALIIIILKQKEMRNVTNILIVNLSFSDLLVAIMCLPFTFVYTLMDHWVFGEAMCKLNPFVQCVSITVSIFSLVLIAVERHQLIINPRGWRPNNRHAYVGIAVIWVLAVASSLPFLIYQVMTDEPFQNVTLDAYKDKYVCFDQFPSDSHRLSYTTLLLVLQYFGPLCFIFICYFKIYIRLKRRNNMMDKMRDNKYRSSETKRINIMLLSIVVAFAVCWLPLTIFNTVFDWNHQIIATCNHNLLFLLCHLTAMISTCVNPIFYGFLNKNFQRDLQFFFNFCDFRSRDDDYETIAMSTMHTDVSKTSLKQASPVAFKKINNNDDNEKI
Put plainly: 125I-PYY displacement, COS-7 membranes. The protocol: as §1

The target in test [6] is T1, human Y4 receptor. The test is described as follows: 125I-PYY displacement, COS-7 membranes. The protocol:
(§2) Data are representative of at least two independent experiments, with each point measured once or in duplicate.
(§3) Radioligand Binding to Membrane Suspensions: Membrane suspensions were diluted in binding buffer supplemented with 0.1% bovine serum albumin and 0.1% bacitracin to yield an optimal membrane protein concentration: ~0.02 mg/ml for human Y1 receptors, ~0.015 mg/ml for hp25a receptors, and ~0.25 mg/ml for SK-N-Be(2). […] Incubations were terminated by filtration over Whatman GF/C filters (pre-coated with 0.5% polyethyleneimine and air-dried before use). […] Binding data were analyzed using nonlinear regression and statistical techniques available in the GraphPAD InPlot package (San Diego, Calif.).
This is another data set of the same source.

In test [7] the target is T1, human Y4 receptor. Put plainly: 125I-PYY displacement, COS-7 membranes. This is another data set of the same source.
The target of test [8] is T3, human Y1 receptor. Put plainly: 125I-PYY displacement, COS-7 membranes. The protocol:
as §2, §3
This is another data set of the same source.

Read-outs that look alike come from different tables or passages of the source. Where no end group is shown, it is not given here.

T1 sequence (P0DQD5 whole entry): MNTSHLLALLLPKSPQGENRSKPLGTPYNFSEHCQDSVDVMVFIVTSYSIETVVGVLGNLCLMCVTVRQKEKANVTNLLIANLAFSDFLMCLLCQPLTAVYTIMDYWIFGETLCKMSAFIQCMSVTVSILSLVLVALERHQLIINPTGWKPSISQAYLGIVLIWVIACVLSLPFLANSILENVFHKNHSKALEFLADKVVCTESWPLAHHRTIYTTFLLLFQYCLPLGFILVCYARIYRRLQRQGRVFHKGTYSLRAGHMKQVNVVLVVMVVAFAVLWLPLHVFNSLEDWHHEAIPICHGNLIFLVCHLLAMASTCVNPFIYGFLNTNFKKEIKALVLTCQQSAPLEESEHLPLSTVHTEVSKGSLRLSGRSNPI

B1: PP31-36, human (peptide, UniProt P01298 60-65, looked up)
peptide: LTRPRY-NH2
notes: range 60-65; also called human PP31-36
Regarding B1, the Ki (commonly the equilibrium dissociation constant of an inhibitor or competing ligand from its target) in the test with human Y4 receptor [1] is 350 nM; with rat Y4 receptor it was 20 nM; with human Y4 receptor [2] it was more than 10000 nM; with human Y4 receptor [4], 350 nM. The “EC50, inhibition of forskolin-stimulated cAMP accumulation, LM(tk-) cells” value (shortened to “EC50, inhibition”) with human Y4 receptor [3] turned out to be 89000 nM.

B2: human neuropeptide Y (peptide)
peptide: not shown
modifications: C-terminal amide
Take B2: the “EC50, inhibition” value with human Y4 receptor [3] was 20 nM.

B3: PP, rat (peptide, UniProt P06303 30-65, looked up)
peptide: APLEPMYPGDYATHEQRAQYETQLRRYINTLTRPRY-NH2
notes: mature; also called rat PP
In the case of B3, the inhibition constant (Ki) came to 0.18 nM with human Y4 receptor [1], 0.2 nM in the test with rat Y4 receptor, 460 nM in the test with human Y1 receptor [5] and 0.18 nM in the test with human Y4 receptor [4].

B4: PP2-36, human (peptide, UniProt P01298 31-65, looked up)
peptide: PLEPVYPGDNATPEQMAQYAADLRRYINMLTRPRY-NH2
With B4, the “EC50, inhibition” value with human Y4 receptor [3] stood at 0.08 nM.

B5: porcine PYY13-36 (peptide, UniProt P68005 13-36, looked up)
peptide: SPEELSRYYASLRHYLNLVTRQRY-NH2
notes: range 13-36; also called PYY13-36, porcine
B5: the Ki with human Y4 receptor [6] stood at 47 nM. This lies in the double-digit nanomolar range.

B6: PP13-36, human (peptide, UniProt P01298 42-65, looked up)
peptide: TPEQMAQYAADLRRYINMLTRPRY-NH2
notes: range 13-36
Turning to B6, the Ki with human Y4 receptor [2] and with human Y4 receptor [4] was 39 nM each time. Moreover, the “EC50, inhibition” value in the test with human Y4 receptor [3] came out at 580 nM.

B7: human pancreatic polypeptide (peptide, UniProt P01298 30-65, looked up)
peptide: APLEPVYPGDNATPEQMAQYAADLRRYINMLTRPRY-NH2
notes: mature; also called human PP; PP, human
Consider B7, for which the values for the Ki with rat Y4 receptor and with human Y4 receptor [7] were 0.12 nM and 0.02 nM, respectively. Moreover, the “EC50, inhibition” value with human Y4 receptor [3] was determined as 0.09 nM.

B8: [Ile^31, Gln^34]PP, human (peptide, UniProt P01298 30-65, looked up)
peptide: APLEPVYPGDNATPEQMAQYAADLRRYINMITRQRY-NH2
notes: mature
B8: the Ki in the test with human Y4 receptor [2] and with human Y4 receptor [4] was 0.09 nM each time. For the same molecule, in the test with human Y4 receptor [3], the “EC50, inhibition” value is 0.27 nM.

B9: PP, bovine (peptide, UniProt P01302 30-65, looked up)
peptide: APLEPEYPGDNATPEQMAQYAAELRRYINMLTRPRY-NH2
notes: mature; also called bovine PP
As for B9, the Ki with human Y4 receptor [1] stood at 0.05 nM; with rat Y4 receptor, 0.15 nM; with human Y1 receptor [5], 240 nM; in the test with human Y4 receptor [4] it was 0.05 nM.

B10: PP27-36, human (peptide, UniProt P01298 56-65, looked up)
peptide: YINMLTRPRY-NH2
notes: range 27-36
B10: in the test with human Y4 receptor [2], the Ki was more than 88 nM. For the same molecule, the “EC50, inhibition” value with human Y4 receptor [3] was 3500 nM.

B11: Phe-Met-Arg-Phe-Amide (peptide)
peptide: FMRF-NH2
notes: Tetrapeptide invertebrate neurotransmitter; also called FMRF-amide; FMRFamide
In the test with human Y4 receptor [4], B11 gave a Ki of 4000 nM.

B12: human peptide YY (peptide)
peptide: not shown
modifications: C-terminal amide
notes: mature; also called human PYY; PYY, human
Take B12: the Ki worked out at 0.085 nM with human Y1 receptor [8], 0.62 nM with human Y4 receptor [6] and 0.19 nM with human Y1 receptor [5]. In the test with human Y4 receptor [3], the “EC50, inhibition” value was 47 nM.
